Test results taken from patent US11033507B2, “Method of synthesis of silica vesicles and use thereof” (THE UNIVERSITY OF QUEENSLAND, priority 2013, dated 2021).

Assays:
[1] = system: SCC25 cells; assay: MTT cell toxicity, SCC25; assay type: cell-based, human
Description: SCC25 cells were seeded in a 96-well plate at a density of 2×10^4 cells per well and cultured in 5% CO2 at 37° C. for 24 h. Then, free RNase A, SVs, RNase A loaded SVs and corresponding denatured samples were added to the cells in DMEM medium at an RNase A dosage of 4-16 μg/ml, and the cells were incubated in 5% CO2 at 37° C. for 24 and 72 h. Subsequently, MTT reagent (10 μl/well volume from 5 mg/mI solution in PBS) was added to each well, shaken for 10 seconds and then incubated at 37° C. for 4 h. The precipitants were collected following centrifugation for the above cell toxicity experiments after the removal of the supernatant. Then DMSO (100 μl) was added to each well to dissolve the formazan crystals and the optical density (OD) was recorded at 570 nm using a microplate reader (SpectraMax M5, Bio-Strategy, Ltd). Cells incubated in the absence of SVs and RNase A were used as the control. All the experiments were performed in triplicate for each group.
Another series of control groups was prepared after heat and acid denaturation of RNase A, including both free RNase A and RNase A loaded SVs. In the denaturation process, 50 μl of HCl (0.01M, pH 2.0) solution was added in to 1 mg of free RNase A or 6-9 mg of SVs (loaded with 1 mg RNase A). The mixtures were incubated at 65° C. for 40 min, cooled and centrifuged. NaOH (0.01M) solution was added dropwise into the mixtures until the pH reached ˜7, indicated by precise pH paper and used as a denatured RNase A group in the present experiment.
The stability and activity of RNase A loaded in hydrophobic modified SV was further investigated with acid and heat treatment. In a treatment procedure, 50 μl 0.01 M HCl (pH 2) was added to ˜1 mg RNase A loaded in SV. The mixture was kept in 65° C. for 40 min, then neutralized with 0.01 M NaOH solution (pH 12) until the pH reached 7. The final RNase A concentration was then diluted to 0.5 mg/ml. Free RNase A was also treated accordingly as a control group. […]

[2] = system: HCT116 cells; assay: Cell viability after acid and heat treatment, HCT116; assay type: cell-based; settings: 24 to 72 h; samples acid and heat treated
[3] = molecular target: RNase A (Bos taurus, UniProt P61823); assay: Thermal unfolding of RNase A by differential scanning calorimetry; assay type: physicochemical; settings: 10 mM PBS, RNase A 0.5 mg/ml, heating rate 60° C./h
Description: The thermal unfolding of RNase A was measured by differential scanning calorimetry (DSC) in the range of 10−130° C. The DSC was carried out using a VP DSC microcalorimeter (MicroCal Company, USA) with a heating rate of 60° C./h. In a typical procedure, the RNase A/SV was suspended in 10 mM PBS solution with the RNase A concentration of 0.5 mg/ml. A reference suspension was also prepared using only SV the same concentration. The reference and sample suspension were injected in the corresponding cells for DSC measurements. The DSC curve of free RNase A was also obtained.

B1: free RNase A: ribonuclease A, model therapeutical protein (protein, UniProt P61823 27-150, looked up)
Ribonuclease pancreatic: KETAAAKFERQHMDSSTSAASSSNYCNQMMKSRNLTKDRCKPVNTFVHESLADVQAVCSQKNVACKNGQTNCYQSYSTMSITDCRETGSSKYPNCAYKTTQANKHIIVACEGNPYVPVHFDASV
- cellular toxicity / inhibition of SCC25 cells ([1]; 24 to 72 h, samples acid and heat treated): no inhibition
- cytotoxicity to SCC25 cells ([1]; free protein after denaturation): no cytotoxicity
- cytotoxicity to SCC25 cells ([1]; free protein, not denatured): no cytotoxicity
- cellular toxicity / inhibition of HCT116 cells [2]: no inhibition
- midpoint temperature for the RNase A thermal unfolding (Tm) [3]: 63.6 °C
